Values belong to the molecule of their own block, whether it stands above or below them.
How the values were obtained:
SaGTPase = molecular target: T1, SaGTPase (Staphylococcus aureus, UniProt P67682); assay: phosphate release, malachite green; type: biochemical; conditions: 1 mM substrate, 1 mM MgCl2, 100 mM MOPS pH 7.5, 37°C
T1 construct: gene rsgA; monomer; gtpase-epi-tpk operon
T1 sequence (P67682 1-291): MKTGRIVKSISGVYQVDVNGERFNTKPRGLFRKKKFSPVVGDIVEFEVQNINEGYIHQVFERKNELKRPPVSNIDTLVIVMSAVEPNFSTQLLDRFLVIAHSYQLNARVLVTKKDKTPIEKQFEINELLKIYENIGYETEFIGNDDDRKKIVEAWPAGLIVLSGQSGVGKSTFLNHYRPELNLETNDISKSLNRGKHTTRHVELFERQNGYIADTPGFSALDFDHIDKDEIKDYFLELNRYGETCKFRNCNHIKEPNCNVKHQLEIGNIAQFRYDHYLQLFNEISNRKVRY

[1] = molecular target: S. aureus 4-amino-5-hydroxymethyl-2-methylpyrimidine (HMP) kinase (SaThiD) (Staphylococcus aureus ATCC25923); assay: SEC-MALS; Superdex 200 10/30 size exclusion column followed by static light scattering (miniDAWN Tristar); 100 mM Tris-HCl buffer, pH 8, 150 mM NaCl; affinity purified proteins
[2] = molecular target: S. aureus thiaminase type II (SaTenA) (Staphylococcus aureus ATCC25923); assay: as above
[3] = molecular target: S. aureus 5-(2-hydroxyethyl)-4-methylthiazole (THZ) kinase (SaThiM) (Staphylococcus aureus ATCC25923); assay: as above
[4] = substrate: Cc1ncc(C[n+]2csc(CCO)c2C)c(N)n1; assay: thiamine hydrolysis, products HMP/THZ measured by radiometric kinase assay, TLC, Lineweaver-Burk; type: biochemical, Staphylococcus aureus; conditions: 100 mM Tris-HCl pH 7.5, 37°C, no nucleophile needed
Source text: thiamine hydrolysis, products HMP/THZ measured by radiometric kinase assay, TLC, Lineweaver-Burk on SaTenA

purified protein [5] = substrate: Cc1ncc(COP(=O)(O)OP(=O)(O)O)c(N)n1; assay: purified protein; type: biochemical, Staphylococcus aureus; conditions: co-substrate THZ-[33P] (THZ phosphate), 37°C
purified protein [6] = substrate: Cc1ncc(C[n+]2csc(CCO)c2C)c(N)n1; assay: purified protein; type: biochemical, Staphylococcus aureus; conditions: 2 mM ATP, 4 mM MnCl2, 100 mM Tris-HCl pH 8.5, 37°C
[7] = substrate: Cc1ncc(CO)c(N)n1; assay: radiometric [gamma-33P]-ATP phosphorylation, TLC, Lineweaver-Burk; type: biochemical, Staphylococcus aureus; conditions: 1 mM ATP, 2 mM MgCl2, 100 mM potassium phosphate pH 7.5, 37°C
Source text: radiometric [gamma-33P]-ATP phosphorylation, TLC, Lineweaver-Burk on SaThiD

Molecule: Nc1nc2c(ncn2[C@@H]2O[C@H](COP(=O)(O)OP(=O)(O)OP(=O)(O)O)[C@@H](O)[C@H]2O)c(=O)[nH]1 [GTP]
phosphate release, malachite green (SaGTPase): the S. aureus GTPase is not restricted to GTP and exhibits a broad substrate spectrum

stoichiometry N [1]: 2
Molecule: S. aureus 4-amino-5-hydroxymethyl-2-methylpyrimidine (HMP) kinase (SaThiD) (enzyme)

stoichiometry N [2]: 3
Molecule: S. aureus thiaminase type II (SaTenA) (enzyme)

stoichiometry N [3]: 2
Molecule: S. aureus 5-(2-hydroxyethyl)-4-methylthiazole (THZ) kinase (SaThiM) (enzyme)

B1: SaTenA (Staphylococcus aureus subsp. aureus NCTC 8325) (protein)
chain: MEFSQKLYQAAKPIINDIYEDDFIQKMLSGDIGADALRHYLKADAAYLKEFTNLYALLIPKMNSMNDVKFLVEQIEFMVEGEVLAHDILAQIVGESYEEIIKTKVWPPSGDHYIKHMYFQAHSRENAIYTIAAMAPCPYIYAELAKRSQSDHKLNREKDTAKWFDFYSTEMDDIINVFEAIMNKLAESMSDKELEQVKQVFLESCIHERRFFNMAMTLEQWEFGGKVND
notes: trimer by SLS
Km [4]: 256 ± 44 µM
kcat [4]: 0.1 ± 0.02 min⁻¹

B2: SaThiE (Staphylococcus aureus subsp. aureus NCTC 8325) (protein)
chain: MFNQSYLNVYFICGTSDVPSHRTIHEVLEAALKAGITLFQFREKGESALKGNDKLVLAKELQHLCHQYDVPFIVNDDVSLAKEINADGIHVGQDDAKVKEIAQYFTDKIIGLSISDLDEYAKSDLTHVDYIGVGPIYPTPSKHDAHIPVGPEMIATFKEMNPQLPIVAIGGINTNNVAPIVEAGANGISVISAISKSENIEKTVNRFKDFFNN
notes: low yield, three bands on SDS-PAGE
Km (purified protein [5]): 145 ± 36 µM

B3: SaTPK (Staphylococcus aureus subsp. aureus NCTC 8325) (protein)
chain: MHINLLCSDRHLPQDIWAKSNEGKWGGVDRGALILLKHQIIPFFSVGDFDSVSKEERQLLTEQLQIKPVQAEKADTDLALAVDKAVALGFDSITIYGATGGRLDHFFGAIQLLLKKAYYKHDVHIEVIDQQNKIELLPKGQHTVEKDKSYPYISFIPMTDDVELSLAGFKYNLARQMLNIGSTLTISNEIESLQAKVTVHDGLILQIRSTDLN
notes: monomer; gtpase-epi-tpk operon
Km (purified protein [6]): 394 ± 74 µM
kcat (purified protein [6]): 0.5 ± 0.07 min⁻¹

B4: SaThiD (Staphylococcus aureus subsp. aureus N315) (protein)
chain: MIKPKIALTIAGTDPTGGAGVMADLKSFHSCGVYGMGVVTSIVAQNTLGVQHIHNLNHQWVDEQLDSVFNDTLPHAIKTGMIATADTMETIRHYLMQHESIPYVIDPVMLAKSGDSLMDNDTKQNLQHTLLPLADVVTPNLPEAEEITGLTIDSEEKIMQAGRIFINEIGSKGIIIKGGHSNDTDIAKDYLFTNEGVQTFENERFKTKHTHGTGCTFSAVITAELAKGRPLFEAVHKAKKFISMSIQYTPEIGRGRGPVNHFAYLKKEGLDDELSK
notes: dimer; 831 bp ORF in tenA-thiM-thiD-thiE operon
Km [7]: 635 ± 20 µM
kcat [7]: 0.7 ± 0.05 min⁻¹
